The target of assay [1] is T1, recombinant human PD-L1-His (Novoprotein, Cat. 315) (human, UniProt Q9NZQ7 19-239).
T1 construct: Bought protein; also called human PD-L1 recombinant protein; human PDL1 protein; not shown: His tag
Nature of the assay: SPR, Biacore T200, antibody captured, human PD-L1-His injected, 1:1 model, 25 C. The procedure: (§1) Biacore T200 (GE Healthcare) was used to determine binding affinity of the PD-L1 antibody to the human and cynomolgus monkey PD-L1-His proteins. Anti-human IgG Fc (Genway, Cat. GWB-20A705) was immobilized on CM5 chip (GE Healthcare, Cat. BR-1005-30) at 25° C. Anti-human Fc (Genway, Cat. GWB-20A705) was diluted to […] with Acetate pH5.0 (GE Healthcare, BR-1003-51). The Amine method in the Immobilization method was used to immobilize. Alternatively, a commercially available Protein A (GE Healthcare, Cat. 29127556) chip was used for detection. […] In each cycle, the antibody to be tested was captured on the fixed CM5 chip, then injected with recombinant human PD-L1-His (Novoprotein, Cat. 315) and cynomolgus monkey PD-L1-His protein (Sino Biological, Cat. 90251-CO8H), and finally regenerated with Glycine pH1.5. The mobile phase was HBS-EP+Buffer (GE Healthcare, Cat. BR-1006-69), the flow rate was 30 μL/min, and the binding time was 300 seconds. The regeneration flow rate was 30 μL/min and the time was 30 seconds. Using Biacore T200 evaluation software (version 3.0), a 1:1 binding model was used to analyze the experimental data, fit the equilibrium dissociation constant KD of the antibody and antigen, and determine the binding rate constant Ka and dissociation rate constant Kd.
For orientation: SPR reads the build-up and loss of mass on a sensor chip optically.

Assay [2] deals with T2, recombinant human PD-L1 protein (Sino Biological, Cat. 10084-H05H) (human, UniProt Q9NZQ7 19-239).
T2 construct: also called PD-L1-mFc; human PD-L1 protein fused with mouse Fc
T2 sequence (Q9NZQ7 19-239 limits assumed): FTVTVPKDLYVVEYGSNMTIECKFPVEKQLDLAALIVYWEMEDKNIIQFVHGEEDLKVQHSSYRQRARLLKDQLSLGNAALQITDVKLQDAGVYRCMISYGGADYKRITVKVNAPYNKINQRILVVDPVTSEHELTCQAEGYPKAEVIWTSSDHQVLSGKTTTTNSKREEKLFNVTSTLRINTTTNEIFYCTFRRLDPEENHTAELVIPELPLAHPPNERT
Nature of the assay: competitive ELISA: PD-L1 coated, antibody titrated against PD-1-His, anti-His-HRP. The procedure:
(§2) The recombinant human PD-L1 protein (Sino Biological, Cat. 10084-H05H) was diluted with carbonate buffer and added to a 96-well plate at a final concentration of […]. […] Then HRP-labeled anti-His tag antibody (MBL, Cat. D291-7) was added, and color development was performed with TMB. After termination with 1M sulfuric acid, OD values (dual wavelength 450 nm-630 nm) were read. The competitive binding curve of the test antibody can be drawn by matching the antibody concentration with the OD value to calculate the IC50 value.
On the technique in general: An ELISA detects its analyte on a solid surface through an enzyme-linked reagent.

Assay [3] concerns the target T2, recombinant human PD-L1 protein (Sino …). The assay can be described thus: competitive ELISA: coated human PD-L1 protein, antibody titrated together with human PD-1-His, bound PD-1-His detected with HRP anti-His; panel A experiment (the text prints only the panel B value). The procedure: as §2
Assay [4] addresses T3, PD-L1 on the surface of CHO-PD-L1 cells (UniProt Q9NZQ7 19-290, limits assumed).
T3 construct: whole, on cells; also called CHO-PD-L1 cells (Nanjing Yongshan Biotechnology); CHO cell line (GenScript, Cat. M00613) stably transfected with PD-L1
The assay can be described thus: flow cytometry on CHO-PD-L1 cells, anti-human IgG PE, MFI fold, ng/ml is the unit of the concentration axis. On the procedure: (§3) A gradient concentration of antibodies to be detected (final concentration of antibody: 10000 ng/ml-0.1 ng/ml, 10-foldserial dilution) were incubated with CHO-PD-L1 cells (Nanjing Yongshan Biotechnology Co., Ltd., 10⁵ cells/well) with high expression of PD-L1 on the cell surface at 4° C. ° C. for 30min. After incubation, 1:250 diluted anti-human IgG PE fluorescent antibody (eBioscience, Cat. 12-4998-8) was added, and incubated at 4° C. for 30 min. The fluorescent antibody specifically bound to the Fc fragment of the antibody to be detected. The fluorescent intensity of PE was detected by FACS, and the ability of the antibody to be detected to bind to PD-L1 protein highly expressed on the cell surface was analyzed. […] MFI fold=MFI value of the experimental group/MFI value of the control group without drugs.
A general note: In flow cytometry, cells or beads pass a laser one at a time.

Assay [5] concerns the target T4, cynomolgus monkey PD-L1-His protein (Sino Biological, Cat. 90251-CO8H) (cynomolgus monkey, UniProt G7PSE7 19-238).
T4 construct: Bought protein; also called cynomolgus monkey PD-L1 recombinant protein
The assay can be described thus: SPR, Biacore T200, antibody captured, PD-L1-His injected, 1:1 model, 25 C. On the procedure: as §1

The target in assay [6] is T1, recombinant human PD-L1-His …. The assay is described as above. The procedure:
as §1

The target in assay [7] is T3, PD-L1 on the surface of CHO-PD-L1 cells. Nature of the assay: flow cytometry on CHO-PD-L1 cells, anti-human IgG PE. The procedure:
as §3

The target is the same in assay [8]. The assay can be described thus: cell-based or functional assay.

T3 sequence (Q9NZQ7 19-290 limits assumed): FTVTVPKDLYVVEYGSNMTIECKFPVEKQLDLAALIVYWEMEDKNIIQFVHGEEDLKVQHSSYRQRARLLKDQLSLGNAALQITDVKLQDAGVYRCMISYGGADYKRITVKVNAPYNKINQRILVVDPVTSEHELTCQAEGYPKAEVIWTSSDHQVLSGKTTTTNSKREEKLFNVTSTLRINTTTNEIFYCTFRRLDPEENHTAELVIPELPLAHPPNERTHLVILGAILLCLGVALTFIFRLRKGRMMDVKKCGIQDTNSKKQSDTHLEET
T1 sequence (Q9NZQ7 19-239 limits assumed): as the sequence (Q9NZQ7 19-239 limits assumed) above
T4 sequence (G7PSE7 entry or part of it limits assumed): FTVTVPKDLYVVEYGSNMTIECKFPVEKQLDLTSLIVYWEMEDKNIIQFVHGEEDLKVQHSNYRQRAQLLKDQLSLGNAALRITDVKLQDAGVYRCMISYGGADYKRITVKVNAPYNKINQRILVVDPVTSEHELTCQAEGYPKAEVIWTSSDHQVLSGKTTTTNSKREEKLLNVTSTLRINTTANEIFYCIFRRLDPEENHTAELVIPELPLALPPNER

B1: PDL1-156 (antibody, V domains shown)
VH: EVQLQESGPELVKPGASVKISCKASGYTFTDYYMNWVRQSHGKSLEWIGDINPNNGDTSYNQKFKGKATLTVDKSSSTAYMDLRSLTSEDSAVYYCASSVMDYWGQGTTVTVSS
VL: DIVLTQSPALMSASPGEKVTMTCSASSSVNYVYWYQQKPRSSPKPWIYLTFNLASGVPARFSGSGSGTSYSLTISSMEAEDAATYYCQQWSSNPLTFGAGTKLEIK
By Kd is commonly meant the equilibrium constant for the complex coming apart. By koff is commonly meant the rate constant with which the complex falls apart. For orientation: kon means the second-order rate constant of association. The IC50 is the point on the concentration scale where inhibition reaches its midpoint. A word on the EC50: it is the concentration needed to bring the measured effect to its halfway point. In the case of B1, the dissociation constant (Kd) was determined as 0.291 nM in assay [1], 0.375 nM in assay [5] and 0.291 nM in assay [6]. Moreover, the koff in assay [1] was determined as 0.000233 s⁻¹. For the same molecule, the kon in assay [1] stood at 802000 M⁻¹ s⁻¹. Moreover, the IC50 came out at 0.221 µg/mL in assay [2] and 0.14 µg/mL in assay [3]. The EC50 in assay [4] stood at 0.0235 µg/mL.

B2: 156-10H (antibody, V domains shown)
VH: QVQLVQSGPELKKPGASVKISCKASGYTFTDYYMNWVRQAPGQSLEWIGDIWPNNGDTSYNQKFKGRVTLTRDTSTSTVYMELRSLRSEDTAVYYCARSVMSDWGQGTLVTVSS
VL: EIVLTQSPALLSLSPGERVTLSCSASSSVNYVYWYQQKPGQAPRPLIYLTFNLASGIPARFSGSGSGTDFTLTISSLEPEDFAVYYCQQWSSNPLTFGGGTKVEIK
Molecule B2 showed an EC50 in assay [7] of 0.0635 µg/mL. Moreover, in assay [1], the Kd was 0.224 nM, the koff was 0.000133 s⁻¹ and the on-rate (kon) came out at 595000 M⁻¹ s⁻¹. For the same molecule, in assay [2], the IC50 turned out to be 0.25 µg/mL. For the same molecule, the “EC50 of NFAT luminescence reporter gene (RLU), Jurkat-PD-1 / CHO-PD-L1 co-culture” value in assay [8] was 0.357 µg/mL.
